Results as given in patent US20120219567A1 (Biogen, published 2012).

T1: human NgR mutant 163 (mutated to alanine) (human, UniProt Q9BZR6 27-445)
T1 sequence: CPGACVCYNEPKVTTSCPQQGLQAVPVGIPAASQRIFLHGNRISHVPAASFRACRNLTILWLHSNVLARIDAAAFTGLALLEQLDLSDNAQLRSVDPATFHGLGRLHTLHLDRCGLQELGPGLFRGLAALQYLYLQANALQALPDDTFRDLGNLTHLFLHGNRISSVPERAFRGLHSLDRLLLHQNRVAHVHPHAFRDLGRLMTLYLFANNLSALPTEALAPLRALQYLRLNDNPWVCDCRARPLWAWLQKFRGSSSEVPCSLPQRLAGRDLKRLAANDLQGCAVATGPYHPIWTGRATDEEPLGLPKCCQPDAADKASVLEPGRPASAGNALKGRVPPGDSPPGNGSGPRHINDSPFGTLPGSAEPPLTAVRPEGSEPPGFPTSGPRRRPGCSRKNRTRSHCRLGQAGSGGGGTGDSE

B1: AP-Nogo-66 (ligand, UniProt Q9NQC3 1055-1120, looked up)
chain: RIYKGVIQAIQKSDEGHPFRAYLESEVAISEELVQKYSNSALGHVNCTIKELRRLFLVDDLVDSLK
notes: domain: Nogo-66; also called AP-Ng-66; Nogo-66 ligand; not shown: alkaline phosphatase (AP) moiety

Each binder was assayed against B1 (assay: AP-ligand binding to transfected COS-7 cells).
Method: (§1) In order to probe the NgR domains that interact with Aβ and Nogo-66, a strategy based on the crystal structure of NgR was employed. A number of human NgR surface-accessible residues were mutated to Ala either individually or as groups of adjacent residues (Table 3), and resultant ligand binding characteristics were assessed. The ligand concentrations were AP, 30 nM, AP-Nogo-66, 5 nM, AP-Aβ(1-28), 50 nM. NgR mutagenesis has been previously described. Hu et al., J Neurosci 25:5298-5304 (2005); Fournier et al., J Neurosci 23:1416-1423 (2003). The expression of each mutant NgR protein was verified by immunohistochemical detection at the surface of cells transfected with expression vector (FIG. 2a). Bound AP was stained and measured using NIH image software. Mutants of human NgR were detected on the surface of transfected COS-7 immunofluorescently. For each of the mutants with altered binding characteristics, expression of immunoreactive NgR protein with electrophoretic mobility similar to wild type was also confirmed by immunoblot (FIG. 2c). Whole COS-7 cell lysates expressing NgR mutants were subjected to SDS-PAGE and blotted with anti-NgR antibodies. The mobility of each mutant was indistinguishable from wild type NgR, except for the mutations in N-linked glycosylation sites (N82 and N179). The binding of both AP-Aβ(1-28) and AP-Nogo-66 ligands to cells expressing this collection of NgR mutant proteins was assessed at concentrations equal to the predetermined Kd's of the ligands (FIG. 2b, d).

Row | binding result | Binder
1 | no binding (tested: 5 nM) | human NgR mutant 67, 68, 71 (mutated to alanine) (receptor) CPGACVCYNEPKVTTSCPQQGLQAVPVGIPAASQRIFLHGAAISAVPAASFRACRNLTILWLHSNVLARIDAAAFTGLALLEQLDLSDNAQLRSVDPATFHGLGRLHTLHLDRCGLQELGPGLFRGLAALQYLYLQDNALQALPDDTFRDLGNLTHLFLHGNRISSVPERAFRGLHSLDRLLLHQNRVAHVHPHAFRDLGRLMTLYLFANNLSALPTEALAPLRALQYLRLNDNPWVCDCRARPLWAWLQKFRGSSSEVPCSLPQRLAGRDLKRLAANDLQGCAVATGPYHPIWTGRATDEEPLGLPKCCQPDAADKASVLEPGRPASAGNALKGRVPPGDSPPGNGSGPRHINDSPFGTLPGSAEPPLTAVRPEGSEPPGFPTSGPRRRPGCSRKNRTRSHCRLGQAGSGGGGTGDSE
2 | no binding (tested: 5 nM) | human NgR mutant 87, 89, 133, 136 (mutated to alanine) (receptor) CPGACVCYNEPKVTTSCPQQGLQAVPVGIPAASQRIFLHGNRISHVPAASFRACRNLTILALASNVLARIDAAAFTGLALLEQLDLSDNAQLRSVDPATFHGLGRLATLALDRCGLQELGPGLFRGLAALQYLYLQDNALQALPDDTFRDLGNLTHLFLHGNRISSVPERAFRGLHSLDRLLLHQNRVAHVHPHAFRDLGRLMTLYLFANNLSALPTEALAPLRALQYLRLNDNPWVCDCRARPLWAWLQKFRGSSSEVPCSLPQRLAGRDLKRLAANDLQGCAVATGPYHPIWTGRATDEEPLGLPKCCQPDAADKASVLEPGRPASAGNALKGRVPPGDSPPGNGSGPRHINDSPFGTLPGSAEPPLTAVRPEGSEPPGFPTSGPRRRPGCSRKNRTRSHCRLGQAGSGGGGTGDSE
3 | no binding (tested: 5 nM) | human NgR mutant 67, 68, 71, 89, 90, 92 (mutated to alanine) (receptor) CPGACVCYNEPKVTTSCPQQGLQAVPVGIPAASQRIFLHGAAISAVPAASFRACRNLTILWLAANALARIDAAAFTGLALLEQLDLSDNAQLRSVDPATFHGLGRLHTLHLDRCGLQELGPGLFRGLAALQYLYLQDNALQALPDDTFRDLGNLTHLFLHGNRISSVPERAFRGLHSLDRLLLHQNRVAHVHPHAFRDLGRLMTLYLFANNLSALPTEALAPLRALQYLRLNDNPWVCDCRARPLWAWLQKFRGSSSEVPCSLPQRLAGRDLKRLAANDLQGCAVATGPYHPIWTGRATDEEPLGLPKCCQPDAADKASVLEPGRPASAGNALKGRVPPGDSPPGNGSGPRHINDSPFGTLPGSAEPPLTAVRPEGSEPPGFPTSGPRRRPGCSRKNRTRSHCRLGQAGSGGGGTGDSE
4 | no binding (tested: 5 nM) | human NgR mutant 82, 179 (mutated to alanine) (receptor) CPGACVCYNEPKVTTSCPQQGLQAVPVGIPAASQRIFLHGNRISHVPAASFRACRALTILWLHSNVLARIDAAAFTGLALLEQLDLSDNAQLRSVDPATFHGLGRLHTLHLDRCGLQELGPGLFRGLAALQYLYLQDNALQALPDDTFRDLGALTHLFLHGNRISSVPERAFRGLHSLDRLLLHQNRVAHVHPHAFRDLGRLMTLYLFANNLSALPTEALAPLRALQYLRLNDNPWVCDCRARPLWAWLQKFRGSSSEVPCSLPQRLAGRDLKRLAANDLQGCAVATGPYHPIWTGRATDEEPLGLPKCCQPDAADKASVLEPGRPASAGNALKGRVPPGDSPPGNGSGPRHINDSPFGTLPGSAEPPLTAVRPEGSEPPGFPTSGPRRRPGCSRKNRTRSHCRLGQAGSGGGGTGDSE
5 | no binding (tested: 5 nM) | human NgR mutant 133, 136 (mutated to alanine) (receptor) CPGACVCYNEPKVTTSCPQQGLQAVPVGIPAASQRIFLHGNRISHVPAASFRACRNLTILWLHSNVLARIDAAAFTGLALLEQLDLSDNAQLRSVDPATFHGLGRLATLALDRCGLQELGPGLFRGLAALQYLYLQDNALQALPDDTFRDLGNLTHLFLHGNRISSVPERAFRGLHSLDRLLLHQNRVAHVHPHAFRDLGRLMTLYLFANNLSALPTEALAPLRALQYLRLNDNPWVCDCRARPLWAWLQKFRGSSSEVPCSLPQRLAGRDLKRLAANDLQGCAVATGPYHPIWTGRATDEEPLGLPKCCQPDAADKASVLEPGRPASAGNALKGRVPPGDSPPGNGSGPRHINDSPFGTLPGSAEPPLTAVRPEGSEPPGFPTSGPRRRPGCSRKNRTRSHCRLGQAGSGGGGTGDSE

What follows are binders tested against T1, human NgR mutant 163 (mutated to …) (assay: AP-ligand binding to transfected COS-7 cells).
Method: as §1

Row | binding result | Binder
6 | no binding (tested: 5 nM) | B1
